Laboratory results as given in patent US20250236663A1.

Columns and labels:
[1] = target: FAM19A5 epitope fragment F3 (BSA-conjugated) (human); assay: ELISA on the coated BSA-conjugated fragment
[2] = target: FAM19A5 epitope fragment F6 (BSA-conjugated) (human); assay: ELISA on the coated BSA-conjugated fragment
[3] = target: FAM19A5 epitope fragment F1 (BSA-conjugated) (human); assay: ELISA on the coated BSA-conjugated fragment
[4] = target: FAM19A5 epitope fragment F4 (BSA-conjugated) (human); assay: ELISA on the coated BSA-conjugated fragment
[5] = target: FAM19A5 epitope fragment F2 (BSA-conjugated) (human); assay: ELISA on the coated BSA-conjugated fragment
[6] = target: Recombinant human FAM19A5 protein (His-tagged) (human) (UniProt Q7Z5A7); assay: ELISA, N'-Term His; set-up: unit not given here
[7] = target: Recombinant human FAM19A5 protein (His-tagged) (human) (UniProt Q7Z5A7); assay: ELISA on coated His-tagged FAM19A5 (positive control); the bar ends at the top of the axis
[8] = target: Recombinant human FAM19A5 protein (His-tagged) (human) (UniProt Q7Z5A7); assay: ELISA, N'-Term His; R² 0.9422

O.D (492nm) [1]: 0.224
O.D (492nm) [2]: 0.139
O.D (492nm) [3]: 0.139
O.D (492nm) [4]: 0.162
O.D (492nm) [5]: 0.394
Bmax [6]: 1.73
O.D (492nm) [7]: 4
Kd [8]: 7.64 nM
B1: Anti-FAM19A5 (P2-C12) (antibody, V domains shown)
VH: QSLEESGGRLVTPGTPLTLTCTVSGFSLSTYAVTWVRQAPGKGLEWIGYINWRGGTSYANWAKGRFTISKTSSTTVDLKMTSPTTEDTATYFCARDASSGAAFGSYGMDPWGPGTLVTVSS
VL: ELDMTQTPSSVSAAVGGTVTIKCQASQSISSYLSWYQQKPGQPPKLLIYEASKLASGVPSRFSGSGYGTEFTLTISDLECADAATYYCQQGYSSTNVWNAFGGGTNVEIK
